Measured values taken from patent publication US20250325622A1, “Autoimmune Disease Modulation Protocol” (priority 2024, published 2025).

System: lupus anticoagulants
Experiment: PTT-LA Screen, lupus patient case study
Type: in vivo, human
Details: coinciding with the first IV infusion, before the protocol; reference range <=40 sec
Protocol: On Jan. 5, 2023, the invention was administered to a person who was previously diagnosed in July 2019 with the autoimmune disease Lupus. This diagnosis was validated through a complete ANA Screen blood test panel conducted in July and subsequently in August of 2019 for a second confirmation. The patient was on standard therapies and medications typically prescribed for Lupus until December 2022, during which their symptoms progressively deteriorated. Of note, the patient voluntarily ceased all standard treatments for Lupus and other related auto-immune diseases one month prior to commencing the invention, under the supervision of their treating rheumatologist of the Arthritis & Rheumatic Disease Specialties center.
PTT-LA Screen: Tests for the presence of lupus anticoagulants, which are antibodies that can interfere with blood clotting and are commonly found in lupus patients.

With “Inflectra: intravenous (IV) infusion treatment, a monoclonal antibody used to treat a range of inflammatory autoimmune diseases” the PTT-LA levels was “significant spike”.
